Source: PMC10948613 (Frontiers in Plant Science, 2024)

T1: ProtA-tagged GLABRA3 (GL3) (Arabidopsis thaliana, UniProt Q9FN69 1-637)
T1 construct: GLABRA3 (GL3), basic helix-loop-helix (bHLH)-like transcription factor, Arabidopsis thaliana; Backbone pTREXdest30; The results write 'GL3-ProtA', but the methods say that the tag is fused to the N-terminus; also called GL3-ProtA; ProtA-tagged GL3; source: HEK293TM cells, transiently expressed, in lysate; not shown: Staphylococcus aureus protein A, N-terminal, kept
T1 sequence (looked up): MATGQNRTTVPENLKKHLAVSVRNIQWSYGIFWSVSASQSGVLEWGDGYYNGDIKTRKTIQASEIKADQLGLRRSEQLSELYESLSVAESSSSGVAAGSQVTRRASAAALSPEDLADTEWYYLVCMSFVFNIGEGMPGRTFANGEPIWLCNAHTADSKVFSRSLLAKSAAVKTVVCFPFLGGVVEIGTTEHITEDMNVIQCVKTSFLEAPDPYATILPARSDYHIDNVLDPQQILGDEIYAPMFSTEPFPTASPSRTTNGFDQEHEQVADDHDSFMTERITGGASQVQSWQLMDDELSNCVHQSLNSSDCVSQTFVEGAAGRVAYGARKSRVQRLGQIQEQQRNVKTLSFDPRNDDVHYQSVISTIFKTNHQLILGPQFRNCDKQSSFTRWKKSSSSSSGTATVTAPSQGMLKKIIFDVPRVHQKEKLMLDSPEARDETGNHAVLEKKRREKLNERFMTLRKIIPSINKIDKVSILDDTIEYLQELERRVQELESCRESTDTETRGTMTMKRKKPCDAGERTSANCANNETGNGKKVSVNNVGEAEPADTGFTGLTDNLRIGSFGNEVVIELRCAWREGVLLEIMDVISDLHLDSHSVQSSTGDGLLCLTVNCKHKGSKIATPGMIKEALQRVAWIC

B1: Renilla-tagged TRIPTYCHON (TRY) (natural protein, Arabidopsis thaliana, UniProt Q8GV05 1-106, looked up)
chain: MDNTDRRRRRKQHKIALHDSEEVSSIEWEFINMTEQEEDLIFRMYRLVGDRWDLIAGRVPGRQPEEIERYWIMRNSEGFADKRRQLHSSSHKHTKPHRPRFSIYPS
notes: TRIPTYCHON (TRY), R3MYB, Arabidopsis thaliana; Backbone pTREXdest30; also called TRY-Renilla; source: HEK293TM cells, transiently expressed, in lysate; not shown: Renilla reniformis luciferase (Rluc), N-terminal, kept
B2: Renilla-tagged CAPRICE (CPC) (natural protein, Arabidopsis thaliana, UniProt O22059 1-94, looked up)
chain: MFRSDKAEKMDKRRRRQSKAKASCSEEVSSIEWEAVKMSEEEEDLISRMYKLVGDRWELIAGRIPGRTPEEIERYWLMKHGVVFANRRRDFFRK
notes: CAPRICE (CPC), R3MYB, Arabidopsis thaliana; Backbone pTREXdest30; also called CPC-Renilla; source: HEK293TM cells, transiently expressed, in lysate; not shown: Renilla reniformis luciferase (Rluc), N-terminal, kept
B3: Renilla-tagged GLABRA1 (GL1) (natural protein, Arabidopsis thaliana, UniProt P27900 1-228, looked up)
chain: MRIRRRDEKENQEYKKGLWTVEEDNILMDYVLNHGTGQWNRIVRKTGLKRCGKSCRLRWMNYLSPNVNKGNFTEQEEDLIIRLHKLLGNRWSLIAKRVPGRTDNQVKNYWNTHLSKKLVGDYSSAVKTTGEDDDSPPSLFITAATPSSCHHQQENIYENIAKSFNGVVSASYEDKPKQELAQKDVLMATTNDPSHYYGNNALWVHDDDFELSSLVMMNFASGDVEYCL
notes: GLABRA1 (GL1), R2R3MYB, Arabidopsis thaliana; Backbone pTREXdest30; also called GL1-Renilla; GL1Renilla; source: HEK293TM cells, transiently expressed, in lysate; not shown: Renilla reniformis luciferase (Rluc), N-terminal, kept
B4: Renilla-tagged TRANSPARENT TESTA GLABRA1 (TTG1) (natural protein, Arabidopsis thaliana, UniProt Q9XGN1 1-341, looked up)
chain: MDNSAPDSLSRSETAVTYDSPYPLYAMAFSSLRSSSGHRIAVGSFLEDYNNRIDILSFDSDSMTVKPLPNLSFEHPYPPTKLMFSPPSLRRPSSGDLLASSGDFLRLWEINEDSSTVEPISVLNNSKTSEFCAPLTSFDWNDVEPKRLGTCSIDTTCTIWDIEKSVVETQLIAHDKEVHDIAWGEARVFASVSADGSVRIFDLRDKEHSTIIYESPQPDTPLLRLAWNKQDLRYMATILMDSNKVVILDIRSPTMPVAELERHQASVNAIAWAPQSCKHICSGGDDTQALIWELPTVAGPNGIDPMSVYSAGSEINQLQWSSSQPDWIGIAFANKMQLLRV
notes: TRANSPARENT TESTA GLABRA1 (TTG1), WD40 protein, Arabidopsis thaliana; Backbone pTREXdest30; also called TTG1-Renilla; Renilla-tagged TTG1; source: HEK293TM cells, transiently expressed, in lysate; not shown: Renilla reniformis luciferase (Rluc), N-terminal, kept

Biological target: T1, ProtA-tagged GLABRA3 (GL3)
Assay: pull-down; LUMIER pull-down: raw HEK293TM extracts of ProtA-tagged GL3 and a Renilla-tagged protein mixed, dilution series of the ratio, Renilla luminescence on the beads; ratios from HA Western blots; single-site reversible binding model; KD dimensionless and relative to the total GL3 concentration
Conditions: partners not purified

First: B1
Second: B2
The “relative KD (KD divided by total GL3)” value of the first is higher: 2.7 dimensionless, relative to the total GL3 concentration for the first, 2.3 dimensionless, relative to the total GL3 concentration for the second.

First: B3
Second: B4
The “relative KD (KD divided by total GL3)” value of the first is lower: 0.5 dimensionless, relative to the total GL3 concentration for the first, 1 dimensionless, relative to the total GL3 concentration for the second.
